Key:
[1] = tested on: transcriptional activity of NFκB; assay: NFκB-dependent luciferase assay in transfected COS-7 cells, TNFα-induced; format: cell-based
Description: COS-7 cells were plated into a 6-well plate (Falcon, catalog number: 35-3046) at 3.5 to 3.8×10^5 cells per well and cultured in a DMEM supplemented with 10% 56° C.-inactivated FBS (fetal bovine serum; HyClone, catalog number: SH30070.03) under the conditions of 5% CO2 and 37° C. After 18 hours, the medium was replaced with a DMEM containing charcoal-dextran treated (C/D treatment) FBS (C/D-FBS, HyClone, catalog number: SH30068.03). Each of the plasmids constructed in Example 2 was mixed as shown in Table 1 and each sample was prepared to be 4.12 μg and each was mixed with TransFast (product name) reagent (12.3 μl) and the mixture was incubated for 10 to 15 minutes. After the medium in each well was replaced, each plasmid DNA was added to the respective wells according to the amount shown in Table 1 and incubation was carried out for 1 hour, thus each DNA was transfected into COS-7 cells. The transfection efficiency was 34%. To the cells into which DNA was transfected as described above, after 24 hours, an inflammatory cytokine (TNFα, Sigma) at a final concentration of 1 ng/ml and a steroid agent (triamcinolone acetonide: TA, Sigma) at a final concentration of 120 nM were added. Further, after an additional 24 hours, luciferase activities in the cells were assayed using Dual Luciferase Assay System (Promega) by a luminometer (Turner BioSystems TD-20/20, Promega). The results are shown in FIG. 1, In FIG. 1, the luciferase activities indicating the transcriptional activity of NFκB is indicated on the vertical axis. The closed circles show the case where only TNFα was added, the closed triangles show the case where both TNFα and TA were added, the open triangles show the case where only TA was added and the open circles show the case where neither of TNFα nor TA was added, respectively.

[2] = tested on: transcriptional activity of NFκB; assay: NFκB luciferase assay in HeLa cells with added His-tag-TAT-MTI-II protein; format: cell-based; conditions: protein 30-300 μg per well added 6 hours before TNFα 1 ng/ml
Description: HeLa cells were plated into a 6-well plate at 2.0×10^5 cells per well and cultured in a DMEM (HyClone) supplemented with 10% FBS (fetal bovine serum) for 18 hours. Thereafter, the medium was replaced with a medium containing charcoal-dextran treated (C/D treatment) FBS (C/D-FBS). Further, after an additional 24 hours, each plasmid DNA blended in accordance with the amount shown in the following Table 2 was added to the respective wells, and these HeLa cells were transfected with NFκB-Luc gene.
At 24 hours after the transfection, to the HeLa cells in each well, the His-tag-TAT-MTI-II fusion protein prepared in Example 7 was added according to the amount shown in Table 3, and 6 hours thereafter, an inflammatory cytokine (TNFα, Sigma) was further added thereto in an amount to give a concentration of 1 ng/ml. After 24 hours, in the same manner as in Example 4, luciferase activities in the cells were assayed using Dual Luciferase Assay System (Promega).

[3] = OVA-sensitized rabbit knee joint inflammation model; format: in vivo, New Zealand White rabbits; conditions: rabbits, 0.4 mg/ml in PBS into the right knee joint, 10 administrations in 14 days
Description: For primary sensitization, ovalbumin (OVA)+Freund's complete adjuvant (FCA) was intradermally injected once in the dorsal area of three New Zealand White rabbits. After 2 weeks, for secondary sensitization, OVA+FCA was intradermally administered once in the dorsal area. Further, for challenge administration, at 5 days after the secondary sensitization, OVA was administered once into the right knee joint. A His-tag-TAT-MTI-II solution (at 0.4 mg/ml in PBS solution) was administered into the right knee joint every other day starting from one day before the challenge administration of OVA. Incidentally, during 5 days from the next day of the challenge administration of OVA, the His-tag-TAT-MTI-II solution was administered once daily. The administration period was 14 days (number of administration: 10 times in total), and in a control group, PBS was administered into the right knee joint. An anti-inflammatory action was examined based on the blood sedimentation rate measurement and the pathological specimens of both knee joints.

[4] = tested on: transcriptional activity of NFκB; assay: NFκB luciferase assay in the presence of coactivator p300; format: cell-based
Description: Then, in order to confirm the action site of MTI-II, the effect of MTI-II was investigated when a coactivator p300, which acts on the transcriptional activity of NFκB, was expressed.
A coactivator p300 expression plasmid (pCMVβ-p300) was purchased from Upstate. DNA transfection was carried out in the same manner as in Example 3 except that the amount of DNA was each 2.0 μg and the amount of pTri-NC or pTri-MTI was 1.0 μg. The NFκB transcriptional activity assay was carried out in the same manner as in Example 4.

[5] = MTI-II peptide administration experiment (behaviour and autopsy observation); format: in vivo; conditions: 10 mg/kg intraperitoneal, ICR mice
Description: MTI-II of SEQ ID NO: 1 (Gene Bank Accession No. M24398) was purified in accordance with the purification method described in the document (Eur. J. Biochem., (2000), 267, 155-162). It was dissolved in physiological saline at a concentration of 1.0 mg/ml and intraperitoneally administered to 5 male (an average body weight of 28.4 g) and 5 female (an average body weight of 25.0 g) ICR mice at 5 weeks of age at 10 mg/kg of body weight. As a control, physiological saline was administered to 2 male and 2 female ICR mice of the same age. […] At 24 hours after the administration, they were sacrificed and autopsy was carried out and the swelling of the liver, kidney, spleen, small intestine, large intestine and thymus and the swelling of the blood vessels in the abdominal cavity were observed by the naked eye. As a result, behavioral anomaly and the swelling of the liver, kidney, spleen, small intestine, large intestine, thymus and blood vessels were not observed in all specimens.

**Q.** Which “luciferase activity (transcriptional activity of NFκB) versus no TNFα” value ([1]; TNFα 1 ng/ml only, MTI-II 0 μg) does the source give for TNFα [reference compound] here?
**A.** Its value is “about 10 times”.

B1: His-tag-TAT-MTI-II: His-tag-TAT-MTI-II fusion protein (SEQ ID NO: 11) expressed in E. coli (protein)
chain: MAHHHHHHSLVPRGSRRRQRRKKRGLQMSEKSVEAAAELSAKDLKEKKDKVEEKAGRKERKKEVVEEEENGAEEEEEETAEDGEDDDEGDEEDEEEEEEEDEGPVRKRTAEEEDEADPKRQKTENGASA
modifications: HisTag-TAT-MTI-II
**Q.** Which “transcriptional activity of NFκB” value [2] does the source give for B1 here?
**A.** Its value is “inhibited depending on the amount of TAT-MTI-II”.

**Q.** What about the “anti-inflammatory action (blood sedimentation rate, pathological specimens of knee joints)” value [3] of the same molecule?
**A.** The value was “anti-inflammatory effect”.

B2: MTI-II: 102 amino acid polypeptide (SEQ ID NO: 2), same sequence as parathymosin; encoded by SEQ ID NO: 1 (protein, listed as Homo sapiens)
chain: MSEKSVEAAAELSAKDLKEKKDKVEEKAGRKERKKEVVEEEENGAEEEEEETAEDGEDDDEGDEEDEEEEEEEDEGPVRKRTAEEEDEADPKRQKTENGASA
**Q.** For B2, which “transcriptional activity of NFκB” value ([1]; TNFα 1 ng/ml, MTI-II expressed (0-3.0 μg vector)) is on record?
**A.** The value was “inhibited depending on the amount of MTI-II”.

**Q.** What about the NFκB transcriptional activity ([1]; TNFα, simultaneous use of MTI-II and the steroid agent (TA 120 nM)) of the same molecule?
**A.** The NFκB transcriptional activity was “inhibited further more”.

**Q.** What about the “transcriptional activity of NFκB compared with the case where MTI-II was not expressed” value ([4]; MTI-II expressed together with p300, TNFα (pTri-MTI 1.0 μg)) of the same molecule?
**A.** Its value is “inhibited to about half or more”.

**Q.** And the “transcriptional activity of NFκB compared with the case where MTI-II was not expressed” value ([4]; MTI-II expressed together with p300, TNFα, steroid agent further added)?
**A.** Its value is “inhibited to about half or more”.

**Q.** What about the “transcriptional activity of NFκB compared with the absence of the coactivator” value ([4]; MTI-II with p300, TNFα, used together with the steroid agent) of the same molecule?
**A.** The value was “inhibited to about half”.

**Q.** And the “swelling of the liver, kidney, spleen, small intestine, large intestine, thymus and blood vessels” value ([5]; autopsy at 24 hours, naked eye)?
**A.** The value was “not observed”.

**Q.** What about the behavioral anomaly ([5]; observed for 24 hours) of the same molecule?
**A.** Its behavioral anomaly is “not observed”.

— US7932226B2, “NFκB transcriptional activity inhibitory agent and anti-inflammatory agent and a steroid action enhancing agent” (St. Marianna University School of Medicine, priority 2004, dated 2011)
